This note sets out measurements from paper PMC9579160.

In test [1] the target is His-tag-fused full-length wild-type CraCRY (C. reinhardtii animal-like cryptochrome) (C. reinhardtii). The test is described as follows: SEC; lit (blue light); inline SEC of the SAXS runs, Superdex 200, 50 mM HEPES pH 7.4, 150 mM NaCl, 5% glycerol, 25 °C, 2 to 10 mg/mL. (In general: Size exclusion chromatography separates by hydrodynamic size, large species first.)
For test [2], the target named is His-tag-fused PHR domain of CraCRY (M1-A489) (C. reinhardtii). Described as above.
The target in test [3] is Strep-tag-fused CraCRY::mCitrine (C. reinhardtii). The test is described as follows: single-molecule photobleaching step counting; lit (blue light): photobleaching steps of CraCRY::mCitrine protein complexes counted by TIRF microscopy.
Test [4] has the same target. The test is described as follows: single-molecule pull-down (TIRF colocalisation with photobleaching step counting); lit (blue light, 450 nm): Strep-tag-fused CraCRY::mCitrine tethered to the glass slide by streptavidin as bait, ROC15(GARP)::mCherry as prey.
Test [5] shares this target. The description is as above. This is another data set of the same source.

Take “His-tag-fused full-length wild-type CraCRY (C. reinhardtii animal-like cryptochrome) (natural protein)”: the stoichiometry N (usually a count of units in the complex or per binding partner) in test [1] was 2.
“His-tag-fused PHR domain of CraCRY (M1-A489) (domain or fragment)” came in with a stoichiometry N in test [2] of 2.
“Strep-tag-fused CraCRY::mCitrine (natural protein)” came in with a population of two-step bleaching in test [3] of 25.1%. In test [4], this molecule showed a dimer fraction without colocalized ROC15 of 15.5%.

B1: ROC15(GARP)::mCherry (domain or fragment)
chain: MGEEYADDGTTRAVKRPRLVWTPQLHRKFESAVIKLGEDKAVPKTIMQEMNIDGLTRENVASHLQKYRM
In the case of B1, in test [5], the fraction of interacting CraCRY (colocalization) amounted to 23.3%; the percentage of interaction between ROC15 and CraCRY monomers was determined as 25.1%.
